The text below walks through data of article PMC6901440.

Assay [1] deals with Flag-MLKL T357D/S358E phosphorylation mimic (human) (UniProt Q8NB16). As to the kind of experiment: immunoblot of oligomers in cytosol and membrane fractions; HEK-293T cells transfected with Flag-MLKL constructs, with or without RIP3, Bcl-2 or Bcl-2 G145A; Triton X-114 detergent phase separation; oligomers seen by immunoblot (gel conditions not told).
Assay [2] concerns the target Bcl-2 (UniProt P10415). Nature of the assay: anti-Flag co-IP, Bcl-2 blot. The settings on record: reference: wild-type MLKL with RIP3; sites T357,S358.

Sequence of Flag-MLKL T357D/S358E phosphorylation mimic (human) (Q8NB16 whole entry T357D/S358E): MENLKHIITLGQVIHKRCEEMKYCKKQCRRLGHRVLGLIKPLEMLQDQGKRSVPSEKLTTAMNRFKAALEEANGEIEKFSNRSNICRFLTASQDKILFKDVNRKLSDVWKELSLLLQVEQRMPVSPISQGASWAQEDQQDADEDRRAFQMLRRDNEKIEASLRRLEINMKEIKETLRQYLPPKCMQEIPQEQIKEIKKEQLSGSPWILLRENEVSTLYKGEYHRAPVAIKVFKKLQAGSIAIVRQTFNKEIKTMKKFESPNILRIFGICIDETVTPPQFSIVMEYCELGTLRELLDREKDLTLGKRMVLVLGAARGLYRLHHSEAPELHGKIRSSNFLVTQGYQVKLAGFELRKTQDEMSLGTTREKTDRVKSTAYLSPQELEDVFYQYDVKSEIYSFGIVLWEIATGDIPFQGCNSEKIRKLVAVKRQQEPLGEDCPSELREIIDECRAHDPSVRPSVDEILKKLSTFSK
Sequence of Bcl-2 (transfected, HEK-293T) (P10415 whole entry): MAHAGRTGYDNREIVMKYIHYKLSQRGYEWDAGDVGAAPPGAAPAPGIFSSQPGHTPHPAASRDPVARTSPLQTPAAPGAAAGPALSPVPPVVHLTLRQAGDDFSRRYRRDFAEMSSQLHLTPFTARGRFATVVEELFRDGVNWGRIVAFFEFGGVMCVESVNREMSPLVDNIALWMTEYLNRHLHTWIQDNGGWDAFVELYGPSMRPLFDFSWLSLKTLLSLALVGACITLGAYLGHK

For “Bcl-2 (transfected, HEK-293T) (from UniProt P10415 1-239)”, the percent decrease of MLKL oligomerization in assay [1] was 30%.
With “MLKL (from UniProt Q8NB16) T357A/S358A with RIP3”, the “binding against the reference” value in assay [2] is “weaker”.
